From publication PMC7585439, “UvrD helicase–RNA polymerase interactions are governed by UvrD’s carboxy-terminal Tudor domain” (Communications Biology, 2020)

T1: UvrD-CTD (Escherichia coli, UniProt P03018 645-720)
T1 sequence: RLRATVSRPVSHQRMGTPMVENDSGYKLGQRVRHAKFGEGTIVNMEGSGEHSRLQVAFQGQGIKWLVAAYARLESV

B1: UvrD-ΔCTD (1-664) (domain or fragment, E. coli, UniProt P03018 1-664, looked up)
chain: MDVSYLLDSLNDKQREAVAAPRSNLLVLAGAGSGKTRVLVHRIAWLMSVENCSPYSIMAVTFTNKAAAEMRHRIGQLMGTSQGGMWVGTFHGLAHRLLRAHHMDANLPQDFQILDSEDQLRLLKRLIKAMNLDEKQWPPRQAMWYINSQKDEGLRPHHIQSYGNPVEQTWQKVYQAYQEACDRAGLVDFAELLLRAHELWLNKPHILQHYRERFTNILVDEFQDTNNIQYAWIRLLAGDTGKVMIVGDDDQSIYGWRGAQVENIQRFLNDFPGAETIRLEQNYRSTSNILSAANALIENNNGRLGKKLWTDGADGEPISLYCAFNELDEARFVVNRIKTWQDNGGALAECAILYRSNAQSRVLEEALLQASMPYRIYGGMRFFERQEIKDALSYLRLIANRNDDAAFERVVNTPTRGIGDRTLDVVRQTSRDRQLTLWQACRELLQEKALAGRAASALQRFMELIDALAQETADMPLHVQTDRVIKDSGLRTMYEQEKGEKGQTRIENLEELVTATRQFSYNEEDEDLMPLQAFLSHAALEAGEGQADTWQDAVQLMTLHSAKGLEFPQVFIVGMEEGMFPSQMSLDEGGRLEEERRLAYVGVTRAMQKLTLTYAETRRLYGKEVYHRPSRFIGELPEECVEEVRLRATVSRPVSHQRMGTPMV
notes: UvrD helicase (Helicase II), E. coli, residues 1-664; made by inserting a stop codon; Probably the His6 full-length construct; also called truncated UvrD lacking the CTD; source: E. coli BL21(λDE3) pLysS, purified (Ni-NTA, SEC)
B2: Mfd RNAP Interaction Domain (Mfd-RID, residues 472-547; Domain 4) (domain or fragment, E. coli, UniProt P30958 472-547, looked up)
chain: RNLAELHIGQPVVHLEHGVGRYAGMTTLEAGGITGEYLMLTYANDAKLYVPVSSLHLISRYAGGAEENAPLHKLGG
notes: Mfd (Transcription-Repair Coupling Factor, TRCF), E. coli, residues 472-547, comprising Domain 4; Used [U-15N] labelled in the NMR experiments; source: E. coli BL21 Star (λDE3), purified (Ni-NTA, SenP1 cleavage, second Ni-NTA, SEC); not shown: His6, N-terminal, cleaved; Sumo, N-terminal, cleaved
B3: 17mer ssDNA (ssDNA)
DNA: GCAGTGCTCGTTTTTTT
B4: biotinylated 17mer ssDNA (ssDNA)
DNA: GCAGTGCTCGTTTTTTT
modifications: biotin (position not given)
B5: UvrD helicase, full-length (1-720) (enzyme, E. coli, UniProt P03018 1-720, looked up)
chain: MDVSYLLDSLNDKQREAVAAPRSNLLVLAGAGSGKTRVLVHRIAWLMSVENCSPYSIMAVTFTNKAAAEMRHRIGQLMGTSQGGMWVGTFHGLAHRLLRAHHMDANLPQDFQILDSEDQLRLLKRLIKAMNLDEKQWPPRQAMWYINSQKDEGLRPHHIQSYGNPVEQTWQKVYQAYQEACDRAGLVDFAELLLRAHELWLNKPHILQHYRERFTNILVDEFQDTNNIQYAWIRLLAGDTGKVMIVGDDDQSIYGWRGAQVENIQRFLNDFPGAETIRLEQNYRSTSNILSAANALIENNNGRLGKKLWTDGADGEPISLYCAFNELDEARFVVNRIKTWQDNGGALAECAILYRSNAQSRVLEEALLQASMPYRIYGGMRFFERQEIKDALSYLRLIANRNDDAAFERVVNTPTRGIGDRTLDVVRQTSRDRQLTLWQACRELLQEKALAGRAASALQRFMELIDALAQETADMPLHVQTDRVIKDSGLRTMYEQEKGEKGQTRIENLEELVTATRQFSYNEEDEDLMPLQAFLSHAALEAGEGQADTWQDAVQLMTLHSAKGLEFPQVFIVGMEEGMFPSQMSLDEGGRLEEERRLAYVGVTRAMQKLTLTYAETRRLYGKEVYHRPSRFIGELPEECVEEVRLRATVSRPVSHQRMGTPMVENDSGYKLGQRVRHAKFGEGTIVNMEGSGEHSRLQVAFQGQGIKWLVAAYARLESV
notes: UvrD helicase (Helicase II), E. coli, full-length, residues 1-720; The His6 tag is called uncleavable; Used [U-2H,15N] labelled in the NMR experiments; also called UvrD-FL; UvrD full-length; source: E. coli BL21(λDE3) pLysS, purified (Ni-NTA, SEC); not shown: His6, N-terminal, kept
B6: Mfd full-length (1-1148) (enzyme, E. coli, UniProt P30958 1-1148, looked up)
chain: MPEQYRYTLPVKAGEQRLLGELTGAACATLVAEIAERHAGPVVLIAPDMQNALRLHDEISQFTDQMVMNLADWETLPYDSFSPHQDIISSRLSTLYQLPTMQRGVLIVPVNTLMQRVCPHSFLHGHALVMKKGQRLSRDALRTQLDSAGYRHVDQVMEHGEYATRGALLDLFPMGSELPYRLDFFDDEIDSLRVFDVDSQRTLEEVEAINLLPAHEFPTDKAAIELFRSQWRDTFEVKRDPEHIYQQVSKGTLPAGIEYWQPLFFSEPLPPLFSYFPANTLLVNTGDLETSAERFQADTLARFENRGVDPMRPLLPPQSLWLRVDELFSELKNWPRVQLKTEHLPTKAANANLGFQKLPDLAVQAQQKAPLDALRKFLETFDGPVVFSVESEGRREALGELLARIKIAPQRIMRLDEASDRGRYLMIGAAEHGFVDTVRNLALICESDLLGERVARRRQDSRRTINPDTLIRNLAELHIGQPVVHLEHGVGRYAGMTTLEAGGITGEYLMLTYANDAKLYVPVSSLHLISRYAGGAEENAPLHKLGGDAWSRARQKAAEKVRDVAAELLDIYAQRAAKEGFAFKHDREQYQLFCDSFPFETTPDQAQAINAVLSDMCQPLAMDRLVCGDVGFGKTEVAMRAAFLAVDNHKQVAVLVPTTLLAQQHYDNFRDRFANWPVRIEMISRFRSAKEQTQILAEVAEGKIDILIGTHKLLQSDVKFKDLGLLIVDEEHRFGVRHKERIKAMRANVDILTLTATPIPRTLNMAMSGMRDLSIIATPPARRLAVKTFVREYDSMVVREAILREILRGGQVYYLYNDVENIQKAAERLAELVPEARIAIGHGQMRERELERVMNDFHHQRFNVLVCTTIIETGIDIPTANTIIIERADHFGLAQLHQLRGRVGRSHHQAYAWLLTPHPKAMTTDAQKRLEAIASLEDLGAGFALATHDLEIRGAGELLGEEQSGSMETIGFSLYMELLENAVDALKAGREPSLEDLTSQQTEVELRMPSLLPDDFIPDVNTRLSFYKRIASAKTENELEEIKVELIDRFGLLPDPARTLLDIARLRQQAQKLGIRKLEGNEKGGVIEFAEKNHVNPAWLIGLLQKQPQHYRLDGPTRLKFIQDLSERKTRIEWVRQFMRELEENAIA
notes: Mfd (Transcription-Repair Coupling Factor, TRCF), E. coli, full-length, residues 1-1148; Construct bought from Genscript; Used [U-2H,15N] labelled in the NMR experiments; also called Transcription-Repair Coupling Factor; TRCF; source: E. coli BL21 Star (λDE3), purified (Ni-NTA, SEC)
B7: UvrD carboxy-terminal region (UvrD-CTD, residues 645-720) (domain or fragment, E. coli, UniProt P03018 645-720, looked up)
chain: T1 sequence
notes: UvrD helicase (Helicase II), E. coli, residues 645-720; The His6 tag is called uncleavable; Used [U-15N] labelled in the NMR experiments; source: E. coli BL21(λDE3) pLysS, purified (Ni-NTA, SEC); not shown: His6, N-terminal, kept
B8: biotinylated 35mer dsDNA (dsDNA)
DNA 1: CGAGCACTGCACTCGAGTGCAGTGCTCGTTGTTAT
DNA 2: B8 DNA 1
modifications: biotin (position not given)
B9: 35mer dsDNA (dsDNA)
DNA 1: B8 DNA 1
DNA 2: B8 DNA 1

Columns and labels:
[1] = target: T2, RNA polymerase core enzyme (subunits α2ββ'ω) (E. coli, UniProt P0A7Z4 1-329; P0A8V2 1-1342; P0A8T7 1-1407; P0A800 1-91); test: BLI; Octet RED96, 303 K; biotinylated ligand on streptavidin biosensors, analyte in a dose series, 0.1% BSA; association and dissociation 1000 s each; which partner was immobilised is not told; settings: both partners purified
T2 construct: RNA polymerase subunit alpha, E. coli; RNA polymerase subunit beta, E. coli; RNA polymerase subunit beta', E. coli; RNA polymerase subunit omega, E. coli; also called RNAP core-enzyme; source: expressed from plasmid pIA900, purified as by Svetlov and Artsimovitch with an added SEC step (Superose6); copies: 2 + 1 + 1 + 1

[2] = target: Mfd-RID (Escherichia coli, UniProt P30958 472-547); test: NMR titration; 2 molar equivalents DNA; NMR titrations at 298 K: UvrD-CTD in UvrD NMR buffer (20 mM K-phosphate, 50 mM KCl, 5 mM DTT, pH 6.5, 10% D2O), Mfd-RID in PBS pH 7.4 with 10% D2O; BLI buffer not given in the material; settings: protein: recombinant; tags: His6-SUMO removed by SenP1; single strand
[3] = target: T1, UvrD-CTD; test: NMR titration; up to 2 molar equivalents DNA; NMR titrations at 298 K: UvrD-CTD in UvrD NMR buffer (20 mM K-phosphate, 50 mM KCl, 5 mM DTT, pH 6.5, 10% D2O), Mfd-RID in PBS pH 7.4 with 10% D2O; BLI buffer not given in the material; settings: protein: recombinant, tags: N-terminal His6, uncleavable
[4] = target: T1, UvrD-CTD; test: BLI; NMR titrations at 298 K: UvrD-CTD in UvrD NMR buffer (20 mM K-phosphate, 50 mM KCl, 5 mM DTT, pH 6.5, 10% D2O), Mfd-RID in PBS pH 7.4 with 10% D2O; BLI buffer not given in the material; settings: protein: recombinant, tags: N-terminal His6, uncleavable, label: biotin
[5] = self-complementary 28 bp duplex of 2 identical strands, 3' overhangs 7 nt, snap cooled after dissolving

T2 sequence (P0A7Z4 whole entry, chain 1 of 4): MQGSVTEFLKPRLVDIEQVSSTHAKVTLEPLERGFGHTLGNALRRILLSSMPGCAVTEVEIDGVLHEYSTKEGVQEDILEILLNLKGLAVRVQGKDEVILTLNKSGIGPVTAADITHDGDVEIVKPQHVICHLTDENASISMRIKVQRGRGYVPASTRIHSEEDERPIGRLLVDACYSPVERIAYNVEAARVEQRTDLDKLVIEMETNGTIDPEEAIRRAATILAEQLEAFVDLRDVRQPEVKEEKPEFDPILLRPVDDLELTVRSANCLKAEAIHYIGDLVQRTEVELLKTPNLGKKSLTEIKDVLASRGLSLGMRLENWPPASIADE
T2 sequence (P0A8V2 whole entry, chain 2 of 4): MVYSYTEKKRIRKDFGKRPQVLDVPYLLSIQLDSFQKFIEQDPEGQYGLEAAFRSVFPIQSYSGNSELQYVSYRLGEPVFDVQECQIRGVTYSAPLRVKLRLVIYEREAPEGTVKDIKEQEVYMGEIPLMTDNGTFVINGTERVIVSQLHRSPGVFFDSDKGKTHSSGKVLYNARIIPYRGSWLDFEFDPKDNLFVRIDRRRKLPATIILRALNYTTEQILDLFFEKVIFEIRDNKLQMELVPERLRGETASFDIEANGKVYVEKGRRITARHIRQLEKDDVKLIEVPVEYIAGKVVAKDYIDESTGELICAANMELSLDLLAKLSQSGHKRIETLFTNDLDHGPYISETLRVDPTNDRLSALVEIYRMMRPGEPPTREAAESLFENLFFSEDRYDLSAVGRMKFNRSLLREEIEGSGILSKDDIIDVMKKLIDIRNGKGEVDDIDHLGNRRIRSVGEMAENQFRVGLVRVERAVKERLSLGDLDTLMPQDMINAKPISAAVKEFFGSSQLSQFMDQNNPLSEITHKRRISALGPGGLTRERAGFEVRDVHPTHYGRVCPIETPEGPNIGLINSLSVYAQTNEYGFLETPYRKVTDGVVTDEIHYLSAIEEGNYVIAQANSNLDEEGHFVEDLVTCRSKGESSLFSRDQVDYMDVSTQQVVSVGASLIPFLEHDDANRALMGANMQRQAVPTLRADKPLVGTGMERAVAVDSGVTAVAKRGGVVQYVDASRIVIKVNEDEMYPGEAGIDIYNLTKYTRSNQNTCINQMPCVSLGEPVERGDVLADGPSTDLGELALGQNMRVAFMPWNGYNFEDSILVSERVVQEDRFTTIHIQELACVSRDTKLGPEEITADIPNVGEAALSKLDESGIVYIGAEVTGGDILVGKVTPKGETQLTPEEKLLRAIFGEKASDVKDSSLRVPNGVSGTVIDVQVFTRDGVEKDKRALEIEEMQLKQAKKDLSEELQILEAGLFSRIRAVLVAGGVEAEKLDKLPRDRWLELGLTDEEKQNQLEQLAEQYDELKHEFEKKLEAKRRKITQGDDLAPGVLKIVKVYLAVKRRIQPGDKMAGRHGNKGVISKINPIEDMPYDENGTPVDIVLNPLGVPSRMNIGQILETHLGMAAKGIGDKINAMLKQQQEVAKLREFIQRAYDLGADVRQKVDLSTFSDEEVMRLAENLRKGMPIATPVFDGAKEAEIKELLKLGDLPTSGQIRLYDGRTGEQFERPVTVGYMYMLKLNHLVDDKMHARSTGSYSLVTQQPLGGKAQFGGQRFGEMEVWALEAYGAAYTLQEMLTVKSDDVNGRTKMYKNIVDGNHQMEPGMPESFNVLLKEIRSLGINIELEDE
T2 sequence (P0A8T7 whole entry, chain 3 of 4): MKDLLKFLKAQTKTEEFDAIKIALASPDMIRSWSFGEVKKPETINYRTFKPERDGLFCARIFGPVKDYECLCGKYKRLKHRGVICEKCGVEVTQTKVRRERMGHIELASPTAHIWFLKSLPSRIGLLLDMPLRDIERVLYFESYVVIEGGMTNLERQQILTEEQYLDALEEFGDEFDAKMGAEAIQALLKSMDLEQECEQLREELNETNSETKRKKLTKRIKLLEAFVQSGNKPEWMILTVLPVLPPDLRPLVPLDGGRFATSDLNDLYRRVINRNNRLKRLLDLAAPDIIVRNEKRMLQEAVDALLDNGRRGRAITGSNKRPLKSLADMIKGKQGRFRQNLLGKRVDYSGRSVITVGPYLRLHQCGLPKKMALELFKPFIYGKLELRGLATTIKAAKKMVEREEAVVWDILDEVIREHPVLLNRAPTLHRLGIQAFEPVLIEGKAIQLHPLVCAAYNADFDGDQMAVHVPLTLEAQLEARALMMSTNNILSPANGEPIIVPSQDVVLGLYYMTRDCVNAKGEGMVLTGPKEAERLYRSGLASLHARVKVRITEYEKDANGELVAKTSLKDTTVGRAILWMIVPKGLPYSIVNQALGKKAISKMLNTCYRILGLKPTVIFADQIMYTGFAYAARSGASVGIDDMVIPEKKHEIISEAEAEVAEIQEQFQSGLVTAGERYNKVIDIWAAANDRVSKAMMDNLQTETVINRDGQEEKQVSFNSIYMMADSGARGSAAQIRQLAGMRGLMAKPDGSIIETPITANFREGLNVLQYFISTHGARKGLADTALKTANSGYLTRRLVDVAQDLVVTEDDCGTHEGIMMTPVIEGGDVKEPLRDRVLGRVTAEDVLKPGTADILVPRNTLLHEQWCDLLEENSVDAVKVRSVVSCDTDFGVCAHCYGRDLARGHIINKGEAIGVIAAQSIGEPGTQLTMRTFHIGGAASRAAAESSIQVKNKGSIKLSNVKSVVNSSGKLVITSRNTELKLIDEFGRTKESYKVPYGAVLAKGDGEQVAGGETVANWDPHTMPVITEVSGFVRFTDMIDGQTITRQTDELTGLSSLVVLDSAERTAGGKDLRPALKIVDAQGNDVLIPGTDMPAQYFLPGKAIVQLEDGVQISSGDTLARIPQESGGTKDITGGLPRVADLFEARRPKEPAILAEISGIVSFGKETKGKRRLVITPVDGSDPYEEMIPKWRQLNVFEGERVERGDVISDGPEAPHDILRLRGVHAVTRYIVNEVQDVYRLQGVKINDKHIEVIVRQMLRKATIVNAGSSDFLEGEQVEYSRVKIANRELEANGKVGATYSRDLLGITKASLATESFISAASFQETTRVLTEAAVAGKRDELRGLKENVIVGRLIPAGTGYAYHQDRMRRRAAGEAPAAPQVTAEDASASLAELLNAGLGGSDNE
T2 sequence (P0A800 whole entry, chain 4 of 4): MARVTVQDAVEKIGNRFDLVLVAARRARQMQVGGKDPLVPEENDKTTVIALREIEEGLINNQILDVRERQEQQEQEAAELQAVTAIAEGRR

Binder | Kd [1] [µM] | further results
B1 | 1.9 ± 0.15 | 
B2 | 0.25 ± 0.052 | 
B3 |  | binding result [2]: no binding; binding result ([3]; single strand): binds
B4 |  | Kd ([4]; single strand): 3.8 ± 0.47 µM
B5 | 1 ± 0.13 | 
B6 | 0.31 ± 0.014 | 
B7 | 0.077 ± 0.0003 | 
B8 |  | Kd [4, 5]: 1.9 ± 0.17 µM
B9 |  | binding result [3, 5]: binds
